Data set [1] deals with T1, coreTFIIH (7 subunits);Rad4-Rad23;Rad33 (Saccharomyces cerevisiae? (yeast, tfb6 …, UniProt Q00578;P06839;P32776;Q02939;Q04673;Q12004;Q3E7C1;P14736;P32628;Q04231 …, ||)). Briefly: EMSA; 100 nM Rad33; Rad4-Rad23 0-100 nM; EMSA: 20 mM HEPES, 100 mM K-acetate, 2 mM Mg-acetate, 5 mM DTT, room temperature 20 min, 250 nM each component, 0.2x TBE agarose gel at 4 C (pH not stated in this buffer). Conditions: protein: native;recombinant;recombinant; tags: TAP tags on Tfb4 and Ssl2; TEV-treated;His-purified, thrombin-digested;His (HisTrap-purified, pETDuet); copies: 1;1;1;1;1;1;1;1;1;1; label: 32P 5' end (T4 PNK) in EMSA; blunt.

For data set [2], the target named is T2, coreTFIIH (7 subunits);Rad4-Rad23 (Saccharomyces cerevisiae? (yeast, tfb6 …, UniProt Q00578;P06839;P32776;Q02939;Q04673;Q12004;Q3E7C1;P14736;P32628 …, |)). Briefly: EMSA; AMP-PNP, 2 mM Mg2+; EMSA: 20 mM HEPES, 100 mM K-acetate, 2 mM Mg-acetate, 5 mM DTT, room temperature 20 min, 250 nM each component, 0.2x TBE agarose gel at 4 C (pH not stated in this buffer). The following applies: protein: native;recombinant; tags: TAP tags on Tfb4 and Ssl2; TEV-treated;His-purified, thrombin-digested; copies: 1;1;1;1;1;1;1;1;1; label: 32P 5' end (T4 PNK) in EMSA; blunt.

For data set [3], the target named is T2, coreTFIIH (7 subunits);Rad4-Rad23. In words: EMSA; ATP 4 mM, 2 mM Mg2+; EMSA: 20 mM HEPES, 100 mM K-acetate, 2 mM Mg-acetate, 5 mM DTT, room temperature 20 min, 250 nM each component, 0.2x TBE agarose gel at 4 C (pH not stated in this buffer). Conditions: protein: native;recombinant; tags: TAP tags on Tfb4 and Ssl2; TEV-treated;His-purified, thrombin-digested; copies: 1;1;1;1;1;1;1;1;1; label: 32P 5' end (T4 PNK) in EMSA; 5' overhang on strand 1: 9 nt from printed strands (text says 10 nt).

Data set [4] concerns the target T1, coreTFIIH (7 subunits);Rad4-Rad23;Rad33. In words: glycerol gradient sedimentation; ATP; EMSA: 20 mM HEPES, 100 mM K-acetate, 2 mM Mg-acetate, 5 mM DTT, room temperature 20 min, 250 nM each component, 0.2x TBE agarose gel at 4 C (pH not stated in this buffer). Conditions: protein: native;recombinant;recombinant; tags: TAP tags on Tfb4 and Ssl2; TEV-treated;His-purified, thrombin-digested;His (HisTrap-purified, pETDuet); copies: 1;1;1;1;1;1;1;1;1;1; label: 32P 5' end (T4 PNK) in EMSA; 5' overhang on strand 1: 9 nt from printed strands (text says 10 nt).

B1: -24/+24 AAF (dsDNA)
DNA 1: CCCATTCCAACCATCCCACTACCTGTCCATCTTCACTCAACTATCACCC
DNA 2: GGGTGATAGTTGAGTGAAGATGGACAGGTAGTGGGATGGTTGGAATGGG
modifications: N-2-acetylaminofluorene adduct on the single G of strand 1 (nt 25, position 0)
In the case of B1, the binding result in data set [1] and in data set [2] was “binds” in each case.

B2: -24*/+24 AAF (dsDNA)
DNA 1: B1 DNA 1
DNA 2: GGGTGATAGTTGAGTGAAGATGGACAGGTAGTGGGATGGT
modifications: N-2-acetylaminofluorene adduct on the single G of strand 1 (nt 25, position 0)
On to B2, for which the binding result in data set [3] and in data set [4] was “binds” throughout.

B3: -24/+15 AAF (dsDNA)
DNA 1: CCCATTCCAACCATCCCACTACCTGTCCATCTTCACTCA
DNA 2: TGAGTGAAGATGGACAGGTAGTGGGATGGTTGGAATGGG
modifications: N-2-acetylaminofluorene adduct on the single G of strand 1 (nt 25); printed strand spans -24 to +14
On to B3, for which, in data set [2], the binding result is listed as “binds”.

Source of the values: PMC8184850, “Cryo-EM structure of TFIIH/Rad4–Rad23–Rad33 in damaged DNA opening in nucleotide excision repair” (Nature Communications, 2021).
